*1 amine or outer side, *2 acyl side, *3 side chain or, on linkers, in order; H or OH if unused. [ ]: non-standard residue; d: D form. 3AzaPhe4AcPip = (S)-3-(6-(4-acetylpiperazin-1-yl)pyridin-3-yl)-2-aminopropanoic acid, CC(=O)N1CCN(c2ccc(C[C@H](N[*:1])C(=O)[*:2])cn2)CC1; Trp(4-Cl)(βS-Me) = C[C@@H](c1c[nH]c2cccc(Cl)c12)[C@H](N)C(=O)O; Pro(trans-4-NH2) = O=C([C@@H]1C[C@@H](N[*:3])CN1[*:1])[*:2]; Bip(4'-COOH) = N[C@@H](Cc1ccc(-c2ccc(C(=O)O)cc2)cc1)C(=O)O; 1Nal(3S-Me) = C[C@@H](c1cccc2ccccc12)[C@H](N)C(=O)O; Ala(pyrimidin-5-yl) = N[C@@H](Cc1cncnc1)C(=O)O; Phe(4-COOH) = N[C@@H](Cc1ccc(C(=O)O)cc1)C(=O)O; Trp(7-aza) = N[C@@H](Cc1c[nH]c2ncccc12)C(=O)O; h3Pal(5-CN) = N#Cc1cncc(CC[C@H](N)C(=O)O)c1; 1Nal = N[C@@H](Cc1cccc2ccccc12)C(=O)O; hTyr = N[C@@H](CCc1ccc(O)cc1)C(=O)O; 3Pal = N[C@@H](Cc1cccnc1)C(=O)O; dDab = NCC[C@@H](N)C(=O)O; Orn = NCCC[C@H](N)C(=O)O; dNMeA = CN[C@H](C)C(=O)O; Dap = NC[C@H](N)C(=O)O; Aib = CC(C)(N)C(=O)O
B1: SEQ ID NO: 33 (peptide)
peptide: cyclo([Bip(4'-COOH)]W[Phe(4-COOH)]G[Pro(trans-4-NH2)][Trp(4-Cl)(βS-Me)]A[dNMeA]G[Bip(4'-COOH)][1Nal]L[Aib]G)
SMILES: CC(C)C[C@@H]1NC(=O)[C@H](Cc2cccc3ccccc23)NC(=O)[C@H](Cc2ccc(-c3ccc(C(=O)O)cc3)cc2)NC(=O)CNC(=O)[C@@H](C)N(C)C(=O)[C@H](C)NC(=O)[C@H]([C@@H](C)c2c[nH]c3cccc(Cl)c23)NC(=O)[C@@H]2C[C@@H](N)CN2C(=O)CNC(=O)[C@H](Cc2ccc(C(=O)O)cc2)NC(=O)[C@H](Cc2c[nH]c3ccccc23)NC(=O)[C@H](Cc2ccc(-c3ccc(C(=O)O)cc3)cc2)NC(=O)CNC(=O)C(C)(C)NC1=O
B2: SEQ ID NO: 38 (peptide)
peptide: cyclo([Bip(4'-COOH)]W[Phe(4-COOH)]G[Pro(trans-4-NH2)][Trp(4-Cl)(βS-Me)]D[dNMeA]G[Bip(4'-COOH)][3Pal]S[dA][hTyr])
SMILES: C[C@@H]1C(=O)NCC(=O)N[C@@H](Cc2ccc(-c3ccc(C(=O)O)cc3)cc2)C(=O)N[C@@H](Cc2cccnc2)C(=O)N[C@@H](CO)C(=O)N[C@H](C)C(=O)N[C@@H](CCc2ccc(O)cc2)C(=O)N[C@@H](Cc2ccc(-c3ccc(C(=O)O)cc3)cc2)C(=O)N[C@@H](Cc2c[nH]c3ccccc23)C(=O)N[C@@H](Cc2ccc(C(=O)O)cc2)C(=O)NCC(=O)N2C[C@H](N)C[C@H]2C(=O)N[C@@H]([C@@H](C)c2c[nH]c3cccc(Cl)c23)C(=O)N[C@@H](CC(=O)O)C(=O)N1C
B3: SEQ ID NO: 3 (peptide)
peptide: cyclo([3AzaPhe4AcPip]W[Phe(4-COOH)]G[Pro(trans-4-NH2)][1Nal(3S-Me)]D[dNMeA]G[Bip(4'-COOH)]KL[dA][hTyr])
SMILES: CC(=O)N1CCN(c2ccc(C[C@@H]3NC(=O)[C@H](CCc4ccc(O)cc4)NC(=O)[C@@H](C)NC(=O)[C@H](CC(C)C)NC(=O)[C@H](CCCCN)NC(=O)[C@H](Cc4ccc(-c5ccc(C(=O)O)cc5)cc4)NC(=O)CNC(=O)[C@@H](C)N(C)C(=O)[C@H](CC(=O)O)NC(=O)[C@H]([C@@H](C)c4cccc5ccccc45)NC(=O)[C@@H]4C[C@@H](N)CN4C(=O)CNC(=O)[C@H](Cc4ccc(C(=O)O)cc4)NC(=O)[C@H](Cc4c[nH]c5ccccc45)NC3=O)cn2)CC1
B4: SEQ ID NO: 28 (peptide)
peptide: cyclo([Bip(4'-COOH)]W[Phe(4-COOH)]G[Pro(trans-4-NH2)][1Nal(3S-Me)]D[dNMeA]G[Bip(4'-COOH)][Ala(pyrimidin-5-yl)][Dap][dA][hTyr])
SMILES: C[C@@H]1C(=O)NCC(=O)N[C@@H](Cc2ccc(-c3ccc(C(=O)O)cc3)cc2)C(=O)N[C@@H](Cc2cncnc2)C(=O)N[C@@H](CN)C(=O)N[C@H](C)C(=O)N[C@@H](CCc2ccc(O)cc2)C(=O)N[C@@H](Cc2ccc(-c3ccc(C(=O)O)cc3)cc2)C(=O)N[C@@H](Cc2c[nH]c3ccccc23)C(=O)N[C@@H](Cc2ccc(C(=O)O)cc2)C(=O)NCC(=O)N2C[C@H](N)C[C@H]2C(=O)N[C@@H]([C@@H](C)c2cccc3ccccc23)C(=O)N[C@@H](CC(=O)O)C(=O)N1C
B5: SEQ ID NO: 31 (peptide)
peptide: cyclo([Bip(4'-COOH)]W[Phe(4-COOH)]G[Pro(trans-4-NH2)][1Nal(3S-Me)]D[dNMeA]G[Bip(4'-COOH)]W[Dap][dA][hTyr])
SMILES: C[C@@H]1C(=O)NCC(=O)N[C@@H](Cc2ccc(-c3ccc(C(=O)O)cc3)cc2)C(=O)N[C@@H](Cc2c[nH]c3ccccc23)C(=O)N[C@@H](CN)C(=O)N[C@H](C)C(=O)N[C@@H](CCc2ccc(O)cc2)C(=O)N[C@@H](Cc2ccc(-c3ccc(C(=O)O)cc3)cc2)C(=O)N[C@@H](Cc2c[nH]c3ccccc23)C(=O)N[C@@H](Cc2ccc(C(=O)O)cc2)C(=O)NCC(=O)N2C[C@H](N)C[C@H]2C(=O)N[C@@H]([C@@H](C)c2cccc3ccccc23)C(=O)N[C@@H](CC(=O)O)C(=O)N1C
B6: SEQ ID NO: 30 (peptide)
peptide: cyclo([Bip(4'-COOH)]W[Phe(4-COOH)]G[Pro(trans-4-NH2)][1Nal(3S-Me)]D[dNMeA]G[Bip(4'-COOH)]W[Dap][dA][h3Pal(5-CN)])
SMILES: C[C@@H]1C(=O)NCC(=O)N[C@@H](Cc2ccc(-c3ccc(C(=O)O)cc3)cc2)C(=O)N[C@@H](Cc2c[nH]c3ccccc23)C(=O)N[C@@H](CN)C(=O)N[C@H](C)C(=O)N[C@@H](CCc2cncc(C#N)c2)C(=O)N[C@@H](Cc2ccc(-c3ccc(C(=O)O)cc3)cc2)C(=O)N[C@@H](Cc2c[nH]c3ccccc23)C(=O)N[C@@H](Cc2ccc(C(=O)O)cc2)C(=O)NCC(=O)N2C[C@H](N)C[C@H]2C(=O)N[C@@H]([C@@H](C)c2cccc3ccccc23)C(=O)N[C@@H](CC(=O)O)C(=O)N1C
B7: SEQ ID NO: 36 (peptide)
peptide: cyclo([Bip(4'-COOH)]W[Phe(4-COOH)]G[Pro(trans-4-NH2)][Trp(4-Cl)(βS-Me)]D[dNMeA]G[Bip(4'-COOH)][1Nal]L[Aib][hTyr])
SMILES: CC(C)C[C@@H]1NC(=O)[C@H](Cc2cccc3ccccc23)NC(=O)[C@H](Cc2ccc(-c3ccc(C(=O)O)cc3)cc2)NC(=O)CNC(=O)[C@@H](C)N(C)C(=O)[C@H](CC(=O)O)NC(=O)[C@H]([C@@H](C)c2c[nH]c3cccc(Cl)c23)NC(=O)[C@@H]2C[C@@H](N)CN2C(=O)CNC(=O)[C@H](Cc2ccc(C(=O)O)cc2)NC(=O)[C@H](Cc2c[nH]c3ccccc23)NC(=O)[C@H](Cc2ccc(-c3ccc(C(=O)O)cc3)cc2)NC(=O)[C@H](CCc2ccc(O)cc2)NC(=O)C(C)(C)NC1=O
B8: SEQ ID NO: 35 (peptide)
peptide: cyclo([Bip(4'-COOH)]W[Phe(4-COOH)]G[Pro(trans-4-NH2)][Trp(4-Cl)(βS-Me)]D[dNMeA]G[Bip(4'-COOH)][1Nal]L[Aib]G)
SMILES: CC(C)C[C@@H]1NC(=O)[C@H](Cc2cccc3ccccc23)NC(=O)[C@H](Cc2ccc(-c3ccc(C(=O)O)cc3)cc2)NC(=O)CNC(=O)[C@@H](C)N(C)C(=O)[C@H](CC(=O)O)NC(=O)[C@H]([C@@H](C)c2c[nH]c3cccc(Cl)c23)NC(=O)[C@@H]2C[C@@H](N)CN2C(=O)CNC(=O)[C@H](Cc2ccc(C(=O)O)cc2)NC(=O)[C@H](Cc2c[nH]c3ccccc23)NC(=O)[C@H](Cc2ccc(-c3ccc(C(=O)O)cc3)cc2)NC(=O)CNC(=O)C(C)(C)NC1=O
B9: SEQ ID NO: 34 (peptide)
peptide: cyclo([Bip(4'-COOH)]W[Phe(4-COOH)]G[Pro(trans-4-NH2)][Trp(4-Cl)(βS-Me)]D[dNMeA]G[Bip(4'-COOH)][1Nal][Dap][Aib][h3Pal(5-CN)])
SMILES: C[C@@H]1C(=O)NCC(=O)N[C@@H](Cc2ccc(-c3ccc(C(=O)O)cc3)cc2)C(=O)N[C@@H](Cc2cccc3ccccc23)C(=O)N[C@@H](CN)C(=O)NC(C)(C)C(=O)N[C@@H](CCc2cncc(C#N)c2)C(=O)N[C@@H](Cc2ccc(-c3ccc(C(=O)O)cc3)cc2)C(=O)N[C@@H](Cc2c[nH]c3ccccc23)C(=O)N[C@@H](Cc2ccc(C(=O)O)cc2)C(=O)NCC(=O)N2C[C@H](N)C[C@H]2C(=O)N[C@@H]([C@@H](C)c2c[nH]c3cccc(Cl)c23)C(=O)N[C@@H](CC(=O)O)C(=O)N1C
B10: SEQ ID NO: 32 (peptide)
peptide: cyclo([Bip(4'-COOH)]W[Phe(4-COOH)]G[Pro(trans-4-NH2)][1Nal(3S-Me)]D[dNMeA]G[Bip(4'-COOH)]WG[dDab][hTyr])
SMILES: C[C@@H]1C(=O)NCC(=O)N[C@@H](Cc2ccc(-c3ccc(C(=O)O)cc3)cc2)C(=O)N[C@@H](Cc2c[nH]c3ccccc23)C(=O)NCC(=O)N[C@H](CCN)C(=O)N[C@@H](CCc2ccc(O)cc2)C(=O)N[C@@H](Cc2ccc(-c3ccc(C(=O)O)cc3)cc2)C(=O)N[C@@H](Cc2c[nH]c3ccccc23)C(=O)N[C@@H](Cc2ccc(C(=O)O)cc2)C(=O)NCC(=O)N2C[C@H](N)C[C@H]2C(=O)N[C@@H]([C@@H](C)c2cccc3ccccc23)C(=O)N[C@@H](CC(=O)O)C(=O)N1C
B11: SEQ ID NO: 37 (peptide)
peptide: cyclo([Bip(4'-COOH)]W[Phe(4-COOH)]G[Pro(trans-4-NH2)][Trp(4-Cl)(βS-Me)]D[dNMeA]G[Bip(4'-COOH)][1Nal][Orn][Aib]G)
SMILES: C[C@@H]1C(=O)NCC(=O)N[C@@H](Cc2ccc(-c3ccc(C(=O)O)cc3)cc2)C(=O)N[C@@H](Cc2cccc3ccccc23)C(=O)N[C@@H](CCCN)C(=O)NC(C)(C)C(=O)NCC(=O)N[C@@H](Cc2ccc(-c3ccc(C(=O)O)cc3)cc2)C(=O)N[C@@H](Cc2c[nH]c3ccccc23)C(=O)N[C@@H](Cc2ccc(C(=O)O)cc2)C(=O)NCC(=O)N2C[C@H](N)C[C@H]2C(=O)N[C@@H]([C@@H](C)c2c[nH]c3cccc(Cl)c23)C(=O)N[C@@H](CC(=O)O)C(=O)N1C
B12: SEQ ID NO: 29 (peptide)
peptide: cyclo([Bip(4'-COOH)]W[Phe(4-COOH)]G[Pro(trans-4-NH2)][1Nal(3S-Me)]D[dNMeA]G[Bip(4'-COOH)][Trp(7-aza)][Dap][dA][hTyr])
SMILES: C[C@@H]1C(=O)NCC(=O)N[C@@H](Cc2ccc(-c3ccc(C(=O)O)cc3)cc2)C(=O)N[C@@H](Cc2c[nH]c3ncccc23)C(=O)N[C@@H](CN)C(=O)N[C@H](C)C(=O)N[C@@H](CCc2ccc(O)cc2)C(=O)N[C@@H](Cc2ccc(-c3ccc(C(=O)O)cc3)cc2)C(=O)N[C@@H](Cc2c[nH]c3ccccc23)C(=O)N[C@@H](Cc2ccc(C(=O)O)cc2)C(=O)NCC(=O)N2C[C@H](N)C[C@H]2C(=O)N[C@@H]([C@@H](C)c2cccc3ccccc23)C(=O)N[C@@H](CC(=O)O)C(=O)N1C

molecular target: Recombinant human IL-1β (BioLegend 579404) (human, UniProt P01584 117-269); test: cell-based or functional assay

MRC5 IC50	Binder
0.544 nM	B1
0.217 nM	B2
0.0599 nM	B3
0.0393 nM	B4
0.0208 nM	B5
0.0185 nM	B6
0.0522 nM	B7
0.16 nM	B8
0.0755 nM	B9
0.033 nM	B10
0.103 nM	B11
0.0205 nM	B12
